Blank lines part the entries; values can stand above or below the molecule they belong to.
Experiments:
[1] = biological target: sortilin extracellular region with C-terminal biotinylation acceptor peptide, biotinylated (human) (human) (UniProt Q99523); assay: SPR
[2] = biological target: C-terminal myc-tagged sortilin (UniProt Q99523); assay: co-IP
[3] = biological target: triple-site mutant proNGF (mouse, cleavage-resistant) (mouse); assay: crystal structure
[4] = size exclusion chromatography of p75NTR alone; conditions: glycan lost; control: wild-type glycosylated p75NTR

Molecule: p75NTR extracellular portion, Asn32 to Asp glycosylation site mutant (rat) (from UniProt P07174 29-190) (receptor)
stoichiometry N (p75NTR per proNGF chain (2:2)) [3]: 1

B1: p75NTR: Asn32 to Asp (protein)
parent chain: MRRAGAACSAMDRLRLLLLLILGVSSGGAKETCSTGLYTHSGECCKACNLGEGVAQPCGANQTVCEPCLDNVTFSDVVSATEPCKPCTECLGLQSMSAPCVEADDAVCRCAYGYYQDEETGHCEACSVCEVGSGLVFSCQDKQNTVCEECPEGTYSDEANHVDPCLPCTVCEDTERQLRECTPWADAECEEIPGRWIPRSTPPEGSDSTAPSTQEPEVPPEQDLVPSTVADMVTTVMGSSQPVVTRGTTDNLIPVYCSILAAVVVGLVAYIAFKRWNSCKQNKQGANSRPVNQTPPPEGEKLHSDSGISVDSQSLHDQQTHTQTASGQALKGDGNLYSSLPLTKREEVEKLLNGDTWRHLAGELGYQPEHIDSFTHEACPVRALLASWGAQDSATLDALLAALRRIQRADIVESLCSESTATSPV
oligomerisation [4]: no change

The remaining lines, values ahead:

Kd [1]: 140 nM
Molecule: proNGF/p75NTR complex (preformed) (from UniProt P07174 29-190)

fold increase of the proNGF:sortilin interaction with calcium over EDTA [2]: 2.3 fold
Molecule: N-terminal HA tagged-proNGF (from UniProt P01139 122-241) (ligand)
